Experimental data taken from the supplement of paper PMC11246515.
± gives the standard deviation of the averaged measurements.

Assay: total protein half-life in vivo (active degradation + dilution); higher = more stable protein
[1] = E. coli NCM3722 delta-clpP delta-lon delta-hslV, growth: N-lim chemostat, doubling time 6 h
[2] = E. coli NCM3722 delta-clpP, growth: N-lim chemostat, doubling time 6 h
[3] = E. coli NCM3722 delta-hslV, growth: N-lim chemostat, doubling time 6 h
[4] = E. coli NCM3722 delta-lon, growth: N-lim chemostat, doubling time 6 h
[5] = E. coli NCM3722 delta-smpB, growth: N-lim chemostat, doubling time 6 h
[6] = wild type E. coli NCM3722, growth: C-lim chemostat, doubling time 3 h
[7] = wild type E. coli NCM3722, growth: C-lim chemostat, doubling time 6 h
[8] = wild type E. coli NCM3722, growth: C-lim chemostat, doubling time 12 h
[9] = wild type E. coli NCM3722, growth: N-lim chemostat, doubling time 6 h
[10] = wild type E. coli NCM3722, growth: N-lim chemostat, doubling time 12 h
[11] = wild type E. coli NCM3722, growth: P-lim chemostat, doubling time 6 h
[12] = wild type E. coli NCM3722, growth: P-lim chemostat, doubling time 12 h

Sequence	total protein half-life in vivo [1] [h]	total protein half-life in vivo [2] [h]	total protein half-life in vivo [3] [h]	total protein half-life in vivo [4] [h]	total protein half-life in vivo [5] [h]	total protein half-life in vivo [6] [h]	total protein half-life in vivo [7] [h]	total protein half-life in vivo [8] [h]	total protein half-life in vivo [9] [h]	total protein half-life in vivo [10] [h]	total protein half-life in vivo [11] [h]	total protein half-life in vivo [12] [h]
MATPHINAEMGDFADVVLMPGDPLRAKYIAETFLEDAREVNNVRGMLGFTGTYKGRKISVMGHGMGIPSCSIYTKELITDFGVKKIIRVGSCGAVLPHVKLRDVVIGMGACTDSKVNRIRFKDHDFAAIADFDMVRNAVDAAKALGIDARVGNLFSADLFYSPDGEMFDVMEKYGILGVEMEAAGIYGVAAEFGAKALTICTVSDHIRTHEQTTAAERQTTFNDMIKIALESVLLGDKE [P0ABP8]	5.35 ± 0.52	4.9 ± 0.79	4.26 ± 0.18	5.28 ± 0.12	4.44 ± 0.086	3.14 ± 0.25	5.99 ± 0.48	12.6 ± 1.4	4.38 ± 0.34	7.48 ± 0.6	5.65 ± 0.38	13.1 ± 0.34
MDKIFVDEAVNELQTIQDMLRWSVSRFSAANIWYGHGTDNPWDEAVQLVLPSLYLPLDIPEDMRTARLTSSEKHRIVERVIRRVNERIPVAYLTNKAWFCGHEFYVDERVLVPRSPIGELINNKFAGLISKQPQHILDMCTGSGCIAIACAYAFPDAEVDAVDISPDALAVAEQNIEEHGLIHNVIPIRSDLFRDLPKVQYDLIVTNPPYVDAEDMSDLPNEYRHEPELGLASGTDGLKLTRRILGNAADYLADDGVLICEVGNSMVHLMEQYPDVPFTWLEFDNGGDGVFMLTKEQLIAAREHFAIYKD	5.46 ± 2.1	3.84 ± 0.055	3.656 ± 0.0091	3.97 ± 0.38	3.9 ± 0.11	2.81 ± 0.12	5.74 ± 0.41	10 ± 0.21	3.85 ± 0.054	6.16 ± 0.26	5.56 ± 0.2	11 ± 1.2
MKQVCVLGNGQLGRMLRQAGEPLGIAVWPVGLDAEPAAVPFQQSVITAEIERWPETALTRELARHPAFVNRDVFPIIADRLTQKQLFDKLHLPTAPWQLLAERSEWPAVFDRLGELAIVKRRTGGYDGRGQWRLRANETEQLPAECYGECIVEQGINFSGEVSLVGARGFDGSTVFYPLTHNLHQDGILRTSVAFPQANAQQQAQAEEMLSAIMQELGYVGVMAMECFVTPQGLLINELAPRVHNSGHWTQNGASISQFELHLRAITDLPLPQPVVNNPSVMINLIGSDVNYDWLKLPLVHLHWYDKEVRPGRKVGHLNLTDSDTSRLTATLEALIPLLPPEYASGVIWAQSKFG	5.64 ± 0.49	4.96 ± 1.2	3.96 ± 0.012		4.51 ± 0.38	3.19 ± 0.41	6.83 ± 1.3	9.39 ± 0.78	4.393 ± 0.015	8.59 ± 3.2	6.17 ± 0.59	12.1 ± 0.25
MNELDGIKQFTTVVADSGDIESIRHYHPQDATTNPSLLLKAAGLSQYEHLIDDAIAWGKKNGKTQEQQVVAACDKLAVNFGAEILKIVPGRVSTEVDARLSFDKEKSIEKARHLVDLYQQQGVEKSRILIKLASTWEGIRAAEELEKEGINCNLTLLFSFAQARACAEAGVFLISPFVGRIYDWYQARKPMDPYVVEEDPGVKSVRNIYDYYKQHHYETIVMGASFRRTEQILALTGCDRLTIAPNLLKELQEKVSPVVRKLIPPSQTFPRPAPMSEAEFRWEHNQDAMAVEKLSEGIRLFAVDQRKLEDLLAAKL [P0A867]	5.487 ± 0.013	5.51 ± 0.43	5.35 ± 0.25	5.76 ± 0.63	5.19 ± 0.4	3.12 ± 0.12	5.95 ± 0.33	11.7 ± 0.016	5.19 ± 0.21	9.85 ± 1.3	5.9 ± 0.16	12.8 ± 0.16
MQKVKLPLTLDPVRTAQKRLDYQGIYTPDQVERVAESVVSVDSDVECSMSFAIDNQRLAVLNGDAKVTVTLECQRCGKPFTHQVYTTYCFSPVRSDEQAEALPEAYEPIEVNEFGEIDLLAMVEDEIILALPVVPVHDSEHCEVSEADMVFGELPEEAQKPNPFAVLASLKRK [P0AB28]	5.71 ± 1.6	5.08 ± 1.3	3.49 ± 0.1	3.58 ± 0.24	3.21 ± 0.78	1.93 ± 0.19	4.48 ± 0.12	7.12 ± 0.54	3.66 ± 0.32	5.22 ± 0.26	4.32 ± 0.3	8.64 ± 0.14
MTLTRREFIKHSGIAAGALVVTSAAPLPAWAEEKGGKILTAGRWGAMNVEVKDGKIVSSTGALAKTIPNSLQSTAADQVHTTARIQHPMVRKSYLDNPLQPAKGRGEDTYVQVSWEQALKLIHEQHDRIRKANGPSAIFAGSYGWRSSGVLHKAQTLLQRYMNLAGGYSGHSGDYSTGAAQVIMPHVVGSVEVYEQQTSWPLILENSQVVVLWGMNPLNTLKIAWSSTDEQGLEYFHQLKKSGKPVIAIDPIRSETIEFFDDNATWIAPNMGTDVALMLGIAHTLMTQGKHDKVFLEKYTTGYPQFEEYLTGKSDNTPKSAVWAAEITGVPEAQIVKLAELMAANRTMLMAGWGIQRQQYGEQKHWMLVTLAAMLGQIGTPGGGFGFSYHYSNGGNPTRVGGVLPEMSAAIAGHASEAADDGGMTAIPVARIVDALENPGGKYQHNGKEQTYPNIKMIWWAGGGNFTHHQDTNRLIKAWQKPEMIVVSECYWTAAAKHADIVLPITTSFERNDLTMTGDYSNQHIVPMKQAVAPQFEARNDFDVFADLAELLKPGGKEIYTEGKDEMAWLKFFYDAAQKGARAQRVTMPMFNAFWQQNKLIEMRHSEKNEQYVRYGDFRADPVKNALGTPSGKIEIYSKTLEKFGYKDCPAHPTWLAPDEWKGTADEKQLQLLTAHPAHRLHSQLNYAELRKKYAIADREPITIHTEDAARFGIANGDLVRVWNKRGQILTGAVVTDGIKKGVVCVHEGAWPDLENGLCKNGSANVLTADIPSSQLANACAGNSALVYIEKYTGNAPKLTAFDQPAVQA	5.67 ± 0.3			5.13			4.75 ± 0.64	11.5 ± 6.1		8.13		
MALYTIGEVALLCDINPVTLRAWQRRYGLLKPQRTDGGHRLFNDADIDRIREIKRWIDNGVQVSKVKMLLSNENVDVQNGWRDQQETLLTYLQSGNLHSLRTWIKERGQDYPAQTLTTHLFIPLRRRLQCQQPTLQALLAILDGVLINYIAICLASARKKQGKDALVVGWNIQDTTRLWLEGWIASQQGWRIDVLAHSLNQLRPELFEGRTLLVWCGENRTSAQQQQLTSWQEQGHDIFPLGI		1.79	1.66	3.39 ± 0.71	1.34 ± 0.26	1.64 ± 0.79	3.86 ± 0.76	4.23 ± 0.31	2.04	2.49	1.98	3.04 ± 0.58
